Target: T1, biotinylated CD59 (Homo sapiens, UniProt P13987)
T1 construct: Recombinant soluble human CD59 with an additional C-terminal cysteine residue
T1 sequence (P13987 26-102 limits assumed): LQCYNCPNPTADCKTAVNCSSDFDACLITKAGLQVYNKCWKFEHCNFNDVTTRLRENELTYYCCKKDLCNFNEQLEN
Test: mRNA-display cyclic peptide screen against CD59-biotin, NGS abundance after 6th selection round
Conditions: for Percentage Seq I: counts normalised by total counts of sample Seq I; for Percentage Seq I / Percentage Seq II: percentage of the pool; for Percentage Seq I / Percentage Seq II / Percentage Average / Percentage of the pool, averaged across the two sequencing samples / Percentage of the pool, Seq I / Percentage of the pool, Seq II: sheet R6; for Percentage Seq II: counts normalised by total counts of sample Seq II; for Percentage Average: percentage of the pool averaged across the two sequencing samples; for Counts Seq I / Counts Seq II: raw NGS counts of peptide sequence; for Counts Seq I: sequencing sample Seq I; for Counts Seq I / Counts Seq II / Counts (raw counts for peptide sequence), Seq I / Counts (raw counts for peptide sequence), Seq II: sheet R6 (6th selection round); for Counts Seq II: sequencing sample Seq II; for Counts (raw counts for peptide sequence), Seq I: NGS sample Seq I; for Counts (raw counts for peptide sequence), Seq II: NGS sample Seq II; for Percentage of the pool, averaged across the two sequencing samples: average of Seq I and Seq II; for Percentage of the pool, Seq I: counts normalised by total counts of NGS sample Seq I; for Percentage of the pool, Seq II: counts normalised by total counts of NGS sample Seq II
From the text: To discover novel non‐protein CD59 ligands, we screened a library of 10^12 cyclic peptides against CD59 using mRNA‐display (Figure 2a).^[ [23], [24], [25], [26], [27], [28], [29] ^] Briefly, an mRNA library was designed in which the start codon was reprogrammed from Met to N‐chloroacetyl‐D‐Tyr (ClAc‐D‐Tyr), followed by 10–12 randomly encoded natural amino acids, a Cys residue, a (GlySer)3 linker, and a stop codon. […] The total library diversity was 1.51 × 10^13 molecules, comprising 5.02 × 10^12 molecules of each macrocycle size, covering a subset of the maximum theoretical diversity of this library design. Following in vitro translation, ClAc‐D‐Tyr spontaneously reacts with either the C‐terminal Cys or a Cys in the random region, yielding macrocyclic thioether peptides. Hits from the library were identified through iterative enrichment and amplification against biotinylated CD59, then immobilized on streptavidin beads. Fifteen hit sequences (CP‐01 to CP‐15), enriched with abundance >1% relative to the total pool of recovered binders after the 6th round of selection, were synthesized by solid phase peptide synthesis (SPPS), without the (Gly‐Ser)3 linker.
Figure 2 Discovery of macrocyclic peptide ligands with nanomolar CD59 affinity using mRNA display. a) The selection process. PCR = polymerase chain reaction, SPPS = solid phase peptide synthesis. b) Table showing details of the peptides with nanomolar affinity for CD59 as well as the binding affinity of the lead inhibitor of CD59, rILYd4. K D values are presented as the average of three technical replicates ± SEM. Structures of all peptides and SPR sensograms are presented in Figures S1 and S2. *indicates the presented sequences are the variable regions of these cyclic peptides; each is flanked by an N‐terminal Ac‐D‐Tyr cyclized to a C‐terminal Cys. R6 abundance (%) is defined as (the given number of NGS reads for a given sequence/the total number of reads of unique sequences observed in NGS)*100 following the 6th selection round. c) Representative sensogram of the interaction between CP‐06 with immobilized CD59 by SPR analysis. Inset showing the equilibrium binding curve of CP‐06 to CD‐59. Below in the box are the association and dissociation rate constants of CP‐06. Concentrations are plotted in descending order from 800‐3.1 nM in line with their position on the legend. […] (nM)'; the box with Kon/Koff has no label of its own / ILYd4: the label may be cut off at the left edge (possibly 'rILYd4') / CP-02, KD: 15.3 ± 0.2, small print, 3 or 8 uncertain / CP-03, KD: 23.4 ± 0.7, small print / CP-06, KD: 11.3 ± 0.0, small print, 3 or 8 uncertain / CP-13, KD: 10.8 ± 0.7, small print, 8 or 6 uncertain / ILYd4, KD: 48.3 ± 1.1, small print, 8 and 3 uncertain
The mRNA-display cyclic peptide screen was performed against CD59-biotin by T.E.M: DNA templates for transcription were generated by PCR in a similar manner to that previously described.^2 RNA oligonucleotides were transcribed from the DNA templates using T7 RNA polymerase and purified by phenol/chloroform extraction followed by ethanol precipitation. Oligonucleotide concentrations were determined spectroscopically by absorbance at 260 nm. In the first selection round a 1:1:1 molar ratio of NNK10/NNK11/NNK12 was used. The procedure for selection rounds 2-6 is described below; round 1 was conducted at twice the scale.
RNA encoding for the peptide library ligated to a puromycin-modified oligonucleotide was […] (final [RNA] = 2.5 µM) using a customised PURE express kit (lacking release factor 1 and methionine, supplemented with […] initiator tRNA acylated with N-chloroacetyl-d-tyrosine prepared as previously described)^3 in a final volume of 5.6 µL for 1 hour at 37 °C.
This mixture was incubated at 42 °C for 1 hour before being diluted to 500 µL with PBS (10 mM Na-PO4 pH 7.4, 2.7 mM KCl, 137 mM NaCl) and 0.5 µL taken for subsequent use in qPCR. […]

Sequence | Percentage Seq I [%] | Percentage Seq II [%] | Percentage Average [%] | Counts Seq I | Counts Seq II | Counts (raw counts for peptide sequence), Seq I | Counts (raw counts for peptide sequence), Seq II | Percentage of the pool, averaged across the two sequencing samples [%] | Percentage of the pool, Seq I [%] | Percentage of the pool, Seq II [%]
FVTGSRDHTRG | 0.074 | 0.053 | 0.063 | 322 | 23 | – | – | – | – | –
PWTWGNRSSVRG | – | – | – | – | – | 49 | 10 | 0.017 | 0.011 | 0.023
CFANRLYGSDSR | 0.040 | 0.039 | 0.040 | 177 | 17 | – | – | – | – | –
AVWGSAHDRWE | 0.044 | 0.046 | 0.045 | 193 | 20 | – | – | – | – | –
SISGGRDYTRG | 0.032 | 0.026 | 0.029 | 141 | 11 | – | – | – | – | –
FARGDRNHQFY | – | – | – | – | – | 63 | 5 | 0.013 | 0.014 | 0.012
LCYVKGSKNFT | 0.088 | 0.095 | 0.092 | 385 | 41 | – | – | – | – | –
LNPQGHCLLKL | – | – | – | – | – | 55 | 8 | 0.016 | 0.013 | 0.019
VKYGNSNFVRG | 0.660 | 0.657 | 0.659 | 2889 | 283 | – | – | – | – | –
HVFGNRFFTRG | 0.031 | 0.039 | 0.035 | 135 | 17 | – | – | – | – | –
YGASPTSLCSGI | 0.166 | 0.186 | 0.176 | 727 | 80 | – | – | – | – | –
CFAYRTHTTAV | – | – | – | – | – | 63 | 6 | 0.014 | 0.014 | 0.014
VYGSRYASIPFC | – | – | – | – | – | 45 | 9 | 0.016 | 0.010 | 0.021
CFARRVNNSSL | 0.031 | 0.028 | 0.030 | 137 | 12 | – | – | – | – | –
FVRGDPYSVLG | 0.057 | 0.049 | 0.053 | 251 | 21 | – | – | – | – | –
HVFGNGSFTRG | 0.031 | 0.035 | 0.033 | 137 | 15 | – | – | – | – | –
HVFGNRSFTRG | 5.324 | 5.834 | 5.579 | 23292 | 2514 | – | – | – | – | –

Sequence | Percentage Seq I [%] | Percentage Seq II [%] | Percentage Average [%] | Counts Seq I | Counts Seq II | Counts (raw counts for peptide sequence), Seq I | Counts (raw counts for peptide sequence), Seq II | Percentage of the pool, averaged across the two sequencing samples [%] | Percentage of the pool, Seq I [%] | Percentage of the pool, Seq II [%]
CLRRSYEATSI | 0.020 | 0.021 | 0.021 | 88 | 9 | – | – | – | – | –
LYGNRDYSFYRP | 0.162 | 0.169 | 0.166 | 707 | 73 | – | – | – | – | –
CIRGTPTTV | – | – | – | – | – | 56 | 3 | 0.010 | 0.013 | 0.007
FVTGDRDHTRG | 0.127 | 0.121 | 0.124 | 554 | 52 | – | – | – | – | –
AISGGRDYTRG | – | – | – | – | – | 43 | 6 | 0.012 | 0.010 | 0.014
HVFGNKSFTRG | – | – | – | – | – | 63 | 9 | 0.018 | 0.014 | 0.021
CIDVYGRMWA | 0.086 | 0.091 | 0.088 | 375 | 39 | – | – | – | – | –
GYLNECHTLYTQ | 0.034 | 0.051 | 0.043 | 149 | 22 | – | – | – | – | –
WRDRFDQCAL | – | – | – | – | – | 67 | 6 | 0.015 | 0.015 | 0.014
FVTGNRDYTRG | 0.050 | 0.063 | 0.056 | 220 | 27 | – | – | – | – | –
SRNGIQFTCS | 0.036 | 0.037 | 0.037 | 158 | 16 | – | – | – | – | –
SWTRGNRSSVRG | – | – | – | – | – | 44 | 5 | 0.011 | 0.010 | 0.012
HVYGNRSFTRG | – | – | – | – | – | 97 | 5 | 0.017 | 0.022 | 0.012
CFQNRVTSDSAK | 0.160 | 0.142 | 0.151 | 702 | 61 | – | – | – | – | –
WTRGSKDYTRG | 0.168 | 0.167 | 0.168 | 737 | 72 | – | – | – | – | –
FVTGNREHTRG | 0.025 | 0.035 | 0.030 | 110 | 15 | – | – | – | – | –
RAWGNRYIAYY | 0.027 | 0.030 | 0.029 | 119 | 13 | – | – | – | – | –

— PMC12207370, “Macrocyclic Peptide Probes for Immunomodulatory Protein CD59: Potent Modulators of Bacterial Toxin Activity and Antibody‐Dependent Cytotoxicity” (Angewandte Chemie (International Ed. in English), 2025)
